Results: article PMC9314367

Target: Rubisco large subunit CbbL of Cyanobium sp. PCC 7001 (Cyanobium sp. PCC 7001)
Experiment: cryo-EM structure; cryo-electron tomography with subtomogram averaging (emClarity) of Rubisco inside isolated native Cyanobium α-carboxysomes in TEMB buffer; 3.8 Å; all Rubiscos and the three concentric layers averaged separately

stoichiometry N: 8
Substance: Rubisco large subunit CbbL of Cyanobium sp. PCC 7001 (natural protein)
